According to patent US20230331823A1:

How the values were obtained:
[1] = molecular target: SARS-CoV-2 RBD (pCoV08, RBD-His6) (SARS-CoV-2 (Wuhan-Hu-1)) (UniProt P0DTC2); assay: BLI, RBD on probe, antibody, then hACE2 (blocked ligand)
[2] = molecular target: SARS-CoV-2 stabilized Spike trimer (S-2P) (SARS-CoV-2) (UniProt P0DTC2)

CR3022 (antibody) gave an EC50 (read off the curve) [1] of 10 µg/mL and an EC50 (read off the curve) [2] of 30 µg/mL.
